Assay results published in paper PMC11939060.
Where two headings read alike, the source gives them in different places.

How the values were obtained:
Experiment in all cases: fluorescence polarization
[1] = molecular target: T1, DNMT3B Δ214 (3BΔ214);DNMT3L CLD (3L) (human;human?, UniProt Q9UBC3;Q9UJW3 215-853;179-379, |)
[2] = molecular target: DNMT3B PWWP K268A (human, UniProt Q9UBC3 206-355, K268A)
[3] = molecular target: DNMT3B PWWP domain (human, UniProt Q9UBC3 206-355)
[4] = molecular target: T1, DNMT3B Δ214 (3BΔ214);DNMT3L CLD (3L); remark: listed apart in the source
[5] = molecular target: T1, DNMT3B Δ214 (3BΔ214);DNMT3L CLD (3L); remark: listed apart in the source
[6] = molecular target: T1, DNMT3B Δ214 (3BΔ214);DNMT3L CLD (3L); remark: listed apart in the source
[7] = molecular target: T1, DNMT3B Δ214 (3BΔ214);DNMT3L CLD (3L); remark: listed apart in the source

T1 sequence (Q9UJW3 179-379, stated change not applied, chain 2 of 2, other chains not shown): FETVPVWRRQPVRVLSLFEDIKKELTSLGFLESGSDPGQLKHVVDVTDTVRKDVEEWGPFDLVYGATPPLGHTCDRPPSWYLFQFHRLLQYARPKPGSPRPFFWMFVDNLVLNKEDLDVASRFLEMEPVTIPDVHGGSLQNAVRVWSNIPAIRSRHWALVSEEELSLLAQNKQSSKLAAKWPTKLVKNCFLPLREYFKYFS

B1: 30-bp FAM dsDNA (dsDNA)
DNA 1: CTGAATACTACTTGCGCTCTCTAACCTGAT
DNA 2: ATCAGGTTAGAGAGCGCAAGTAGTATTCAG
Kd [1]: 3.51 ± 0.28 µM
Kd [2]: 24.3 ± 2 µM
Kd [3]: 9.12 ± 0.67 µM
Kd [4]: 2.34 ± 0.15 µM
Kd [5]: 0.85 ± 0.07 µM
Kd [6]: 3.5 ± 0.3 µM
Kd [7]: 1.39 ± 0.12 µM
